Assay results published in a protein production outcome set (Wang et al. 2014).

Test: label from the status in PepcDB records

Row | Sequence | protein production
1 | MTQHYLRSAAYRDFSIHSIYGMSDDDIHAMFARLRWSSDSHQACPACGAWAQHYRRPARQQWRCKECGRDFSVTSATAFSSRKKSLRSILLATFYYVTGVKGLAGLGLSRMGDYSNKAAHVALGKLREAIFRTQDFTPLTGVVEIDGGYFGGKPRKPNRRGLRNDQAIVDRIAGRPAKRPWHASGMTRTNWEKRKNKRVVMIFRQQGRPGEGAVRSIAAVARSENDKDAAKLIARYVSSEAIIMTDESPAYATVSATHTHYAVRHSHEYVSAEGVNENQAESFFSRLRRWEYGVSHGVRPAYLADYANEMAWREDVRRFSIRTQVEMLLIKALTVGHSRWWRGYYQGKRRGTEILMNQGIPPSSASGASAQ | failed
2 | MPRLAISRLWPMLTAVALLSPLATAQQGQTLRAGELTVTLTPTQPDSNGWYRAGRLELQGTDEGIRGVETSRLRGAVLGELSPDGRWLSVLGTGGGYVQLWNVATAERQFTFLAHDKKSYDARLAAFSPDSRRLVFYSYPNELSLWDTATGVRVKLLSDVRKGGWWTADADAVFSPDGKTFVVTGGGGGAQLFDTRTGDLLQTFDRPCQSFGPGSPGGFWRGAVGATFSADGKNVAVLYAGGAARLYGVAGAGALAKASWKLDNFKPSQMRFWAGKLTLNGRELSGKTPNGLSFTLTF | failed
3 | MIAPSRNLLLCNKGKTELNHSFSMLQAIVESTPYGLLVTNKHGHLLCYNQPYMDMWRIPPEVMVNARHQIIFGHYSSQLRDPQQFLHSTEVIYGTWLPESFDILEFLDGRAFERHTKATTLEGPNMVRVWSFKDITERRQAEAYKAQLAAMVESSDDAIIVKDLNAIITSWNAGAERIFGYQASEITGSSILALIPPERHEEEKGIMSLVKSGNRVDHFETMWWGKGKKPIDVSVTTSAVKDSDGNIVGISQIARDITKRKESQKRIEYLAHYDPLTGLPNRALLADRMKTAIENAKRYSFQLAVLFVDLDHFKLINDSLGHEIGDKLLKIVAERMRSRLRQTDTVSRLGGDEFIILLSRINAASDAACVAEKIIAALSQPYHLEQHELGLGASIGISIYPDSGKDTSSLLRSADEAMYSAKGQGRNRYHGP | failed
4 | MIGPMWSDVIDLRDFYATSQGQLTRRLIGRSLRALWPEVRGCRVLGLGYAVPFLQPFADEAERVVAMMPAPMGAVRWPSVGPVQGALADELELPLPDRSIDRLLLIHGLEFADHAHGLLRECWRVLADNGRLMVVVPNRRATWARMERSPFANGQPYSEGQLTRLLRDRLFTPIASSTALFMPPSRSRMVMGSASLLEQIGCRLFPAFGGVVVVDCAKQIAAPVLRSAVASRRVYVGVGLSQPLQGSSRAGFKNPAPFTGVDGS | failed
5 | PDRAWINRCRTLSEHTDKAVRAQLAAHPKATGLHVAAAVMDALTDGDQLLLGASNPVRDAALVSYPAPKIRVLSNRGVAGIDGTVSAAVGAALAYEEGRTVALLGDLTFLHDASGLLIGSGEPRPRDLTIVVANDDGGGIFELLEQGDPQYAGVFERVFGTPHGMDLAALCAAYRVEHHLVGLGELSTRLSAPEAPGDRGIRVLEVTTERSGLRELHAAVRAQL | failed
6 | MKKILFCLPLLLLALQSCEIEDEYMYDKGLYTIDWDAAADSSSVTLIDRFWNTEENYFNYGNDGSIKDFHYWPQAHAMDVMIDAYNRTGDSKYSDLFDKWYVGIKAKNGGSYWNNFYDDMEWIALTMIRLYEVTDENKYLETSQEMWNEIKTGWNDYAGGGIAWTHDQLWSKNACSNGPAALIAARLYRINGNQEDLDWAVNIYKWERENLFNPATGAIYDNVNGETGELSTLSLSYNQGTFLGAAYELYKITGEESYLKDARKAANFAISNSSMIDTGNNLLRDEGDGDGGLFKGIFMRYYVQLIMEPNLDPIYKKKFITFFNNNAEILWRKGINKLDLLYNTNWAMNNSGNNHLTTQTSGCTLIEAKALFEKSLK | failed
7 | MARFRDELLLASLIALAALILLRGLGNDSLGFPDADRILMDSVFLRDLLVDLPLADPIGYTKDYFVQYPALSIGYRPPFFPFVAALLQLLVGPEMWATRLALFGFVLVGVASSYFWIRRHYGPWPAWGATALWLTTPYLAQWGWYTMAELTVLSMALLAANLFDKYLAEGKPALLYWSVLAVALAAWTKQTALFLLPWFAAMALAEGRFLAILRRREAWIAAFGLGVLLAPLVAMTLMLGDLNLEQSVGGTNRWTLANWTVRLKTILHHLTPPLLALSVVGAIWAGLKRDRHGLPFALLIVVVYGVFSYISGKNDRYPIFWVPAFALFAVLPFHFLSQRLPAKATVPALALGVGVLAAYQGSLAFTKTPSYATGYKEAAAYVLDSSETPIVFVDAYNNGYFTYFMRALDQGRSMVVLRGDKLLSSSAINMATKVEVHAEGRQEIEEIFRSLGVSLIVVEERNYTGLDVHDELRRFLKTDSFELVQAIPIHSNRTVSVLADFPPLGGQDLLVYRYKDAKTLTSGVVSLRLPVVGQTLSVDMETMMERRRAHP | failed
8 | DNAMEEEIQSIMKIERDLFLAIKNKEFVIHYQPKVDSSTGNIIGSEALIRWLHPSLGMVGPNKFIPIAEKNGLINNIGRWLIQEVFITINKWISEGINVLPVSINLSRVELYKNDLVDFFKLMFNTYNIPKELIELEITETTALRDVKFISERLYEIKSLGMNISLDDFGVGNSNFINLKGIPLDIIKIDRSLILDIVTNTKTKFMVKAIVNLSHDLNVTVICEGVEDMHQVKVLSELGCNFIQGYVFFKP | failed
9 | MQEAEAIYQSGMKILNGSTRKNQKREAYRYLQKAAGMNHTKALERVSYALLFGDYLTQNIQAAKEMFEKLTEEGSPKGQTGLGFLYASGLGVNSSQAKALVYYTFGALGGNLIAHMVLGYRYWAGIGVLQSCESALTHYRLVANHVASDISLTGGSVVQRIRLPDEVENPGMNSGMLEEDLIQYYQFLAEKGDVQAQVGLGQLHLHGGRGVEQNHQRAFDYFNLAANAGNSHAMAFLGKMYSEGSDIVPQSNETALHYFKKAADMGNPVGQSGLGMAYLYGRGVQVNYDLALKYFQKAAEQGWVDGQLQLGSMYYNGIGVKRDYKQALKYFNLASQGGHILAFYNLAQMHASGTGVMRSCHTAVELFKNVCERGRWSERLMTAYNSYKDDDYNAAVVQYLLLAEQGYEVAQSNAAFILDQREATIVGENETYPRALLHWNRAASQGYTVARIKLGDYHFYGFGTDVDYETAFIHYRLASEQQHSAQAMFNLGYMHEKGLGIKQDIHLAKRFYDMAAEASPDAQVPVFLALCKLGVVYFLQYIREANIRDLFTQLDMDQLLGPEWDLYLMTIIALLLGTVIAYRQRQHQDIPVPRPPGPRPAPPQQEGPPEQQPPQ | failed
10 | MSRAGRIAAETRAAWYAFVRRRTAVFFTFFFPVILILIFGALVGTDPTGGGLFAEPAGYYVAGYLAVVVLFTPLSRVGSEVARHRSGNRFEKLATTPLSRAEWLFAQTLVNVVVIGLASLLILGLVLLVTDAAFTFSLLVVPYVALGVALFCGLGAILGRIADSQDGAIAASNGIAIPLLFLSETFVPPALLPEWFVPLLDLSPLTYFARGLRAATYEPVANTGGTGLVGSDPYLNLVVLAAGAVVFFAAGAYALPRTD | failed
11 | SLSSKDKDTVKALWGKIADKAEEIGSDALSRMLAVYPQTKTYFSHWKDLSPGSAPVNKHGKTIMGGIVDAVASIDDLNAGLLALSELHAFTLRVDPANFKILSHCILVLLAVKFPKDFTPEVHISYDKFFSALARALAEKYR | not failed
12 | MPCPPNVSMMLGKEGPAADSERVTLWRDHHLSHTHAVLWTVILVATVGDILLTMTGLTVGLQEGNAVVSTMLAEFGLAGLWLVKFGAMLWLVAGWRLLSERNATVFLALFAVVTLAVVAYNSVTILQYRGVITAVAGI | failed
13 | MMNYRKADMKDISLLVSIRKRQLIDEGIEPNIDIDKELTRYFNNKLANNLLVEWIAEENNQIIATAAIAFIDFPPTYTNKTGRKGYITNMYTEPTSRGNGIATGMLDRLVNEAKERNIHKICLVASKLGRPVYKKYGFQDTDEWLELNLLEHHHHHH | failed
14 | MSQNWNADYATLAKRGFMLGAGLFLLGIAGEVAGSAVLGTLPAWGDTLLVDMEMLGILVGLLSPLVFGVVMPLTE | failed
